B1: E3 ubiquitin-protein ligase NHLRC1 (Homo sapiens), Q6VVB1 (parent)
chain: MAAEASESGPALHELMREAEISLLECKVCFEKFGHRQQRRPRNLSCGHVVCLACVAALAHPRTLALECPFCRRACRGCDTSDCLPVLHLIELLGSALRQSPAAHRAAPSAPGALTCHHTFGGWGTLVNPTGLALCPKTGRVVVVHDGRRRVKIFDSGGGCAHQFGEKGDAAQDIRYPVDVTITNDCHVVVTDAGDRSIKVFDFFGQIKLVIGGQFSLPWGVETTPQNGIVVTDAEAGSLHLLDVDFAEGVLRRTERLQAHLCNPRGVAVSWLTGAIAVLEHPLALGTGVCSTRVKVFSSSMQLVGQVDTFGLSLYFPSKITASAVTFDHQGNVIVADTSGPAILCLGKPEEFPVPKPMVTHGLSHPVALTFTKENSLLVLDTASHSIKVYKVDWG
partner: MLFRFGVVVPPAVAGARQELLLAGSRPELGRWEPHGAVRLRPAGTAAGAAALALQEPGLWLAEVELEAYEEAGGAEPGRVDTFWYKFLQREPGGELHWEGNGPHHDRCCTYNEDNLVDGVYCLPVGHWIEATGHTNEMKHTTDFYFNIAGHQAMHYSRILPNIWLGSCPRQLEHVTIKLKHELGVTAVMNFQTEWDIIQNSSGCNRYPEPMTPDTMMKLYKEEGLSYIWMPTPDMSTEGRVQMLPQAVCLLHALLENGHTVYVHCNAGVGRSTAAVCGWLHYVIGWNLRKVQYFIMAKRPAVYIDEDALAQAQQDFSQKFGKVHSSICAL
B2: Laforin (Mus musculus), Q9WUA5 (parent)
chain: B1 partner
partner: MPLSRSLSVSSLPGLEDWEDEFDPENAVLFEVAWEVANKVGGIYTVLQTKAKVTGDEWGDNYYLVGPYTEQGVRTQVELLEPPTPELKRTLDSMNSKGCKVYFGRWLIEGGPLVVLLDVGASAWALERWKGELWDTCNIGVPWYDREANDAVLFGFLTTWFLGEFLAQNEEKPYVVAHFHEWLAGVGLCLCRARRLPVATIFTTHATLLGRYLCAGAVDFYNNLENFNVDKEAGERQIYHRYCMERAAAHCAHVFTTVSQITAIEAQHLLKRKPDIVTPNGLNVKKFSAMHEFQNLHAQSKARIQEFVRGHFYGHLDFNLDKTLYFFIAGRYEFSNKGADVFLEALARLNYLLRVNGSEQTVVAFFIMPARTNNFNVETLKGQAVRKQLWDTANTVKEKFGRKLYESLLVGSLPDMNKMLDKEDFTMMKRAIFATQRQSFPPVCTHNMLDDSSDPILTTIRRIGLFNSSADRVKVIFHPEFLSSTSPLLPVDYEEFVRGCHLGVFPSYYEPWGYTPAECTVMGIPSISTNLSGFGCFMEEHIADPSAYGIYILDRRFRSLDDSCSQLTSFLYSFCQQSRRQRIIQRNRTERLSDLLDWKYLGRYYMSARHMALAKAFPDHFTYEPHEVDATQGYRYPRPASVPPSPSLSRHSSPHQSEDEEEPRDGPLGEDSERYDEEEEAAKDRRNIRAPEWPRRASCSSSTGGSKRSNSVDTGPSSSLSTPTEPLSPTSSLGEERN

Variants of: B1
Conditions: with epm2a_mouse Epm2a

| Variant | effect of a mutation on the interaction |
| --- | --- |
| Q302P | decreasing interaction |

Variants of: B1
Conditions: with epm2a_mouse Epm2a
Remark: another data set of the same source

| Variant | effect of a mutation on the interaction |
| --- | --- |
| P264H | disrupting interaction |

Variants of: B1
Conditions: with epm2a_mouse Epm2a
Remark: another data set of the same source

| Variant | effect of a mutation on the interaction |
| --- | --- |
| C26S | decreasing interaction |

Variants of: B1
Conditions: with epm2a_mouse Epm2a
Remark: another data set of the same source

| Variant | effect of a mutation on the interaction |
| --- | --- |
| E280K | disrupting interaction |

Variants of: B1
Conditions: with epm2a_mouse Epm2a
Remark: another data set of the same source

| Variant | effect of a mutation on the interaction |
| --- | --- |
| I198N | disrupting interaction |

Variants of: B1
Conditions: with epm2a_mouse Epm2a
Remark: another data set of the same source

| Variant | effect of a mutation on the interaction |
| --- | --- |
| L87P | decreasing interaction |

Variants of: B1
Conditions: with epm2a_mouse Epm2a
Remark: another data set of the same source

| Variant | effect of a mutation on the interaction |
| --- | --- |
| D233A | disrupting interaction |

Variants of: B1
Conditions: with epm2a_mouse Epm2a
Remark: another data set of the same source

| Variant | effect of a mutation on the interaction |
| --- | --- |
| D146N | disrupting interaction |

Variants of: B2
Conditions: with gys1_mouse Gys1, Q9Z1E4

| Variant | effect of a mutation on the interaction |
| --- | --- |
| C265S | increasing interaction |
